# Test results as given in patent publication CN113234145A (THE FIFTH AFFILIATED HOSPITAL SUN YAT SEN UNIV; ZHUHAI …, dated 2021).
# B1: nCoV396 (antibody, V domains shown)
# VH: QVQLVESGGGVVQPGRSLRLSCAASGFTFSSYIMHWVRQAPGKGLEWVAVISYDGSNEAYADSVKGRFTISRDNSKNTLYLQMSSLRAEDTGVYYCARETGDYSSSWYDSWGRGTLVTVSS
# VL: QLVLTQSPSASASLGASVKLTCTLSSGHSNYAIAWHQQQPEKGPRYLMKVNSDGSHTKGDGIPDRFSGSSSGAERYLTISSLQSEDEADYYCQTWGTGIQVFGGGTKLTVL
# B2: nCoV400 (antibody, V domains shown)
# VH: EVQLLESGGGLVQPGGSLRLSCAASGFTFSSYAMSWVRQAPGKGLEWVSVIYSGGSSTYYADSVKGRFTISRDNSKNTLYLQMNSLRAEDTAVYYCAKDHLELSAAGSQINYYYYGMDVWGQGTTVTVSS
# VL: SYELTQPPSVSVSPGQTARITCSGDALPKQYAYWYQQKPGQAPVLVIYKDSERPSGIPERFSGSSSGTTVTLTISGVQAEDEADYYCQSADSSGTSHWVFGGGTKLTVL
# B3: nCoV402 (antibody, V domains shown)
# VH: QVQLVESGGGVVQPGGSLRLSCAASGFTFSRFTMHWVRQAPGKGLEWVAIISFNGSDKLYVDSVKGRFTVSRDSSKEMLYLQMSSLRHEDTAVYYCARETEDYTSSYFDYWGQGTLVTVSS
# VL: QLVLTQSPSASASLGASVKLTCTLSSGHNNYAIAWHQQQPQTGPRFLMKVNSDGSHVKGDGIPDRFTGSSSGTGRYLTISSLQSEDEADYYCQTWASGIQVFGGGTKLTVL
# B4: nCoV416 (antibody, V domains shown)
# VH: QVQLVQSGAVLKRPGASVKLSCKASGYIFTSYHIHWVRQAPGQGLEWLGTINPRGDVTAYAQKFQGRVSLTRDTSTTTVYMELSSLRSEDTAIYYCAREHGDVSSSVFDHWGQGTLVSVSS
# VL: QLVLTQSPSASASLGASIKLTCTLSSGHSNYAIAWHKQQPEKGLRYLMKVNSDGSHNKGDGIPDRFSGSSSGPERYLIISSLQSDDEADYHCQTWASGIQVFGGGTKLTVL
# B5: nCoV424 (antibody, V domains shown)
# VH: QVQLVQSGAEVKKPGASVKLSCKASGYTFSSYYIHWVRQAPGQGLEWLGIINPGGDITAYAQKFQGRVSLTRDTSTSTVYMQLSSLRYEDTAVYYCAREEGDVSTSVFDNWGQGTLVTVSS
# VL: QLVLTQSPSASASLGASIKLTCTLSSGHRSYAIAWHQQQPGKGPRYLMKLNSDGSHIKGDGVPDRFSGSSSGAERYLSISSLQSEDEADYHCQTWGTGIQVFGGGTRLTVL
# B6: nCoV425 (antibody, V domains shown)
# VH: QVQLVESGGGVVQPGRSLRLSCAASGFTFSNYAMHWVRQPPGKGLEWVAIISYEGRTEYADSMKGRFTISRDNSKSAVYLQMNSLRPEDTAVYYCAREVFDISGSWFDYWGQGTLVTVSS
# VL: QLVLTQSPSASASLGASVKLTCTLSSRHSNYAIAWHQQQPEKGPRYLMKLNSDGSHTKGDGIPDRFSGSSSGAERYLTISSLHSEDEADYYCQTWGTGIQVFGGGTKVTVV
# B7: nCoV433 (antibody, V domains shown)
# VH: QVQLVESGGGVVQPGRSLRLSCAASGFTFSNYAMHWVRQAPGKGLEWVTIISYDGTNIYEDSVKGRFTISRDNSKNTLYLQMNSLRAEDTAVYYCAREVFDSSGSWFDYWGQGTLVTVSS
# VL: QLVLTQSPSASASLGASVRLTCSLSSGHRNYAIAWHQQQPEKGPRYLMKLNSDGSHTKGDGVPDRFSGSSSGAERYLTISSLQSEDEADYYCQTWGTGIQVFGGGTKVTVL
# B8: nCoV454 (antibody, V domains shown)
# VH: QVQLVESGGGVVQPGGSLRLSCVTSGFTFSNYAMHWVRQAPGKGLEWVAIISYDGSHLYGDSVKGRFTISRDNSKNTLYLEMSSLRNEDTATYYCARETPEVSGSWIDYWGQGALVIVSS
# VL: QLVLTQSPSASASLGASVNLTCTLTSGHNSYAIAWHQQQPNKGPRYLMKLNSDGSHDKGDGIPDRFSGSSSGTERYLTISSLQSEDEADYYCQTWGTGVQVFGGGTKLTVL
# B9: nCoV457 (antibody, V domains shown)
# VH: QVQLVESGGGVVQPGRSLRLSCVASGFTFSRYIIHWVRQAPGKGLEWVAVISYDGTAALYADTVKGRFTISRDNSKNTLYLQMNSLRADDTAVYYCARETGEMSTSYFEYWGQGTLVTVSS
# VL: QLVLTQSPSASASLGASVKLTCTLSSRHNNYAIAWHQQQPEKGPRFLMKVNSDGSHTKGDGIPDRFSGSSSGAERYLTISSLQSDDEADYYCQTWGTGNQVFGGGTKVTVL
# How the values were obtained:
# SARS-CoV-2病毒N蛋白(全长) [1] = molecular target: T1, SARS-CoV-2病毒N蛋白(全长) (SARS-CoV-2, UniProt P0DTC9 1-419)
# SARS-CoV-2病毒N蛋白(全长) [2] = molecular target: T1, SARS-CoV-2病毒N蛋白(全长); assay: SPR (Biacore X100), antibody captured as ligand, N protein as analyte
# MERS-CoV N蛋白 = MERS-CoV N蛋白 (MERS-CoV, UniProt K9N4V7 1-411); assay: SPR (Biacore X100), antibody captured as ligand, MERS-CoV N protein as analyte
# SARS-CoV N蛋白 = SARS-CoV N蛋白 (SARS-CoV, UniProt P59595 1-422); assay: SPR (Biacore X100), antibody captured as ligand, SARS-CoV N protein as analyte
Binder,EC50 (SARS-CoV-2病毒N蛋白(全长) [1]) [ng/mL],other results
B1,3.2,Kd (SARS-CoV-2病毒N蛋白(全长) [2]): 1.02 nM; Kd (MERS-CoV N蛋白): 7.43 nM; Kd (SARS-CoV N蛋白): 7.44 nM
B2,1110,
B3,6.3,
B4,3.3,
B5,11.8,
B6,5.2,
B7,5.3,
B8,5,
B9,2.6,
